Experiment [1] concerns the target T1, RAS G12V mutant (KRAS G12V) peptide on HLA-DPB1*03:01 (human).
T1 peptide: TEYKLVVVGAVGV
Put plainly: Jurkat-NFAT-Luc; SW620-DPB + G12V peptide, 10 µg/ml, 10-fold dilutions, 5 conc.; Emax relative to WT 82%; full-length, on cells. Here is the method:
(§1) In the above table, those with TCR Mut RLU/WT RLU ratio ≥80% were underlined, which were the preferred TCR mutants. The Emax and EC50 (Functional Avidity) of the TCR mutants to recognize the KRAS-G12V antigen peptide were further determined. SW620-DPB cells (SW620 expressing HLA-DPB1*03:01) were loaded with different concentrations of G12V antigen peptide (10 μg/ml, 10-fold dilution, 5 concentrations), and co-incubated with Jurkat-NFAT-Luc cells expressing the TCR mutants for 16-24 hours, and the fluorescence signal expression was detected by adding ONE Glo Luciferase.

In experiment [2] the target is T1, RAS G12V mutant (KRAS G12V) peptide on …. As to the kind of experiment: Jurkat-NFAT-Luc + B13 LCL loaded with T15; vs wild-type B13.14.1; mTCRβ 94.90%; full-length, on cells. Here is the method:
(§2) The TCR mutant (MHC-II binding region) lentiviral vector was transduced into the Jurkat-NFAT-Luc cell line, and B13 LCL cells loaded with KRAS-G12V antigen (RAS G12V-T15 peptide, SEQ ID NO: 5) were used as the antigen-presenting cells. 2×10⁴ TCR-T and 2×10⁴ antigen-loaded B13 LCL cells were co-cultured for 16-24 hours, the fluorescence signal expression was detected by adding ONE Glo Luciferase, and TCR Mut RLU/WT RLU (ratio of RLU signal value of TCR mutant to RLU signal value of wild-type B13.14.1TCR) was calculated.

The target is the same in experiment [3]. As to the kind of experiment: Jurkat-NFAT-Luc; SW620-DPB + G12V peptide, 10 µg/ml, 10-fold dilutions, 5 conc.; Emax relative to WT 131%; full-length, on cells. Here is the method: as §1
The target is the same in experiment [4]. Put plainly: Jurkat-NFAT-Luc; SW620-DPB + G12V peptide, 10 µg/ml, 10-fold dilutions, 5 conc.; Emax relative to WT 97%; full-length, on cells. Here is the method:
as §1

For experiment [5] the target is unchanged. As to the kind of experiment: Jurkat-NFAT-Luc; SW620-DPB + G12V peptide, 10 µg/ml, 10-fold dilutions, 5 conc.; Emax relative to WT 180%; full-length, on cells. Here is the method: as §1
For experiment [6] the target is unchanged. Put plainly: Jurkat-NFAT-Luc; SW620-DPB + G12V peptide, 10 µg/ml, 10-fold dilutions, 5 conc.; Emax relative to WT 78%; full-length, on cells. Here is the method:
as §1

The target is the same in experiment [7]. Put plainly: Jurkat-NFAT-Luc + B13 LCL loaded with T15; vs wild-type B13.14.1; mTCRβ 89.00%; full-length, on cells. Here is the method: as §2
The target is the same in experiment [8]. Put plainly: Jurkat-NFAT-Luc; SW620-DPB + G12V peptide, 10 µg/ml, 10-fold dilutions, 5 conc.; Emax relative to WT 111%; full-length, on cells. Here is the method: as §1
Experiment [9] shares this target. Put plainly: Jurkat-NFAT-Luc; SW620-DPB + G12V peptide, 10 µg/ml, 10-fold dilutions, 5 conc.; Emax relative to WT 134%; full-length, on cells. Here is the method: as §1
The target is the same in experiment [10]. Put plainly: Jurkat-NFAT-Luc + B13 LCL loaded with T15; vs wild-type B13.14.1; mTCRβ 95.20%; full-length, on cells. Here is the method: as §2
For experiment [11] the target is unchanged. As to the kind of experiment: Jurkat-NFAT-Luc; SW620-DPB + G12V peptide, 10 µg/ml, 10-fold dilutions, 5 conc.; Emax relative to WT 106%; full-length, on cells. Here is the method:
as §1

Data on eight molecules can be found in patent publication US20240000834A1, “RAS MUTANT EPITOPE PEPTIDE AND T CELL RECEPTOR RECOGNIZING RAS MUTANT” (SHANGHAI GENBASE BIOTECHNOLOGY CO., LTD., priority 2020, published 2024).

B1: B13.14.1 TCR mutant α49K-Y (TCR, V domains shown)
Valpha: AQSVAQPEDQVNVAEGNPLTVKCTYSVSGNPYLFWYVQYPNRGLQFLLYYITGDNLVKGSYGFEAEFNKSQTSFHLKKPSALVSDSALYFCAVRDGRGGGNKLTFGTGTQLKVEL
Vbeta: DGGITQSPKYLFRKEGQNVTLSCEQNLNHDAMYWYRQDPGQGLRLIYYSQIVNDFQKGDIAEGYSVSREKKESFPLTVTSAQKNPTAFYLCASSPGQRDNSPLHFGNGTRLTVT
For the molecule B1, in experiment [1], the EC50 of peptide is 0.96 µg/mL. Besides, the “TCR Mut RLU/WT RLU” value in [2] was 119%.

B2: B13.14.1 TCR mutant α52T-A (TCR, V domains shown)
Valpha: AQSVAQPEDQVNVAEGNPLTVKCTYSVSGNPYLFWYVQYPNRGLQFLLKYIAGDNLVKGSYGFEAEFNKSQTSFHLKKPSALVSDSALYFCAVRDGRGGGNKLTFGTGTQLKVEL
Vbeta: DGGITQSPKYLFRKEGQNVTLSCEQNLNHDAMYWYRQDPGQGLRLIYYSQIVNDFQKGDIAEGYSVSREKKESFPLTVTSAQKNPTAFYLCASSPGQRDNSPLHFGNGTRLTVT
B2: the EC50 of peptide in experiment [3] was 1.56 µg/mL.

B3: B13.14.1 TCR mutant β50Q-N (TCR, V domains shown)
Valpha: AQSVAQPEDQVNVAEGNPLTVKCTYSVSGNPYLFWYVQYPNRGLQFLLKYITGDNLVKGSYGFEAEFNKSQTSFHLKKPSALVSDSALYFCAVRDGRGGGNKLTFGTGTQLKVEL
Vbeta: DGGITQSPKYLFRKEGQNVTLSCEQNLNHDAMYWYRQDPGQGLRLIYYSNIVNDFQKGDIAEGYSVSREKKESFPLTVTSAQKNPTAFYLCASSPGQRDNSPLHFGNGTRLTVT
For the molecule B3, the EC50 of peptide in experiment [4] stood at 1.19 µg/mL.

B4: B13.14.1 TCR mutant β48Y-F (TCR, V domains shown)
Valpha: AQSVAQPEDQVNVAEGNPLTVKCTYSVSGNPYLFWYVQYPNRGLQFLLKYITGDNLVKGSYGFEAEFNKSQTSFHLKKPSALVSDSALYFCAVRDGRGGGNKLTFGTGTQLKVEL
Vbeta: DGGITQSPKYLFRKEGQNVTLSCEQNLNHDAMYWYRQDPGQGLRLIYFSQIVNDFQKGDIAEGYSVSREKKESFPLTVTSAQKNPTAFYLCASSPGQRDNSPLHFGNGTRLTVT
Consider B4, for which the EC50 of peptide in [5] was determined as 9.51 µg/mL.

B5: B13.14.1 TCR mutant β50Q-T (TCR, V domains shown)
Valpha: AQSVAQPEDQVNVAEGNPLTVKCTYSVSGNPYLFWYVQYPNRGLQFLLKYITGDNLVKGSYGFEAEFNKSQTSFHLKKPSALVSDSALYFCAVRDGRGGGNKLTFGTGTQLKVEL
Vbeta: DGGITQSPKYLFRKEGQNVTLSCEQNLNHDAMYWYRQDPGQGLRLIYYSTIVNDFQKGDIAEGYSVSREKKESFPLTVTSAQKNPTAFYLCASSPGQRDNSPLHFGNGTRLTVT
Consider B5, for which the EC50 of peptide in [6] turned out to be 1.34 µg/mL. Moreover, in [7], the “TCR Mut RLU/WT RLU” value is 101%.

B6: B13.14.1 TCR mutant α52T-H (TCR, V domains shown)
Valpha: AQSVAQPEDQVNVAEGNPLTVKCTYSVSGNPYLFWYVQYPNRGLQFLLKYIHGDNLVKGSYGFEAEFNKSQTSFHLKKPSALVSDSALYFCAVRDGRGGGNKLTFGTGTQLKVEL
Vbeta: DGGITQSPKYLFRKEGQNVTLSCEQNLNHDAMYWYRQDPGQGLRLIYYSQIVNDFQKGDIAEGYSVSREKKESFPLTVTSAQKNPTAFYLCASSPGQRDNSPLHFGNGTRLTVT
With B6, the EC50 of peptide in [8] was determined as 1.03 µg/mL.

B7: B13.14.1 TCR mutant α51I-W (TCR, V domains shown)
Valpha: AQSVAQPEDQVNVAEGNPLTVKCTYSVSGNPYLFWYVQYPNRGLQFLLKYWTGDNLVKGSYGFEAEFNKSQTSFHLKKPSALVSDSALYFCAVRDGRGGGNKLTFGTGTQLKVEL
Vbeta: DGGITQSPKYLFRKEGQNVTLSCEQNLNHDAMYWYRQDPGQGLRLIYYSQIVNDFQKGDIAEGYSVSREKKESFPLTVTSAQKNPTAFYLCASSPGQRDNSPLHFGNGTRLTVT
With B7, in experiment [9], the EC50 of peptide stood at 1.24 µg/mL. The “TCR Mut RLU/WT RLU” value in experiment [10] stood at 129%.

B8: B13.14.1 TCR mutant α49K-S (TCR, V domains shown)
Valpha: AQSVAQPEDQVNVAEGNPLTVKCTYSVSGNPYLFWYVQYPNRGLQFLLSYITGDNLVKGSYGFEAEFNKSQTSFHLKKPSALVSDSALYFCAVRDGRGGGNKLTFGTGTQLKVEL
Vbeta: DGGITQSPKYLFRKEGQNVTLSCEQNLNHDAMYWYRQDPGQGLRLIYYSQIVNDFQKGDIAEGYSVSREKKESFPLTVTSAQKNPTAFYLCASSPGQRDNSPLHFGNGTRLTVT
With B8, the EC50 of peptide in experiment [11] came out at 1.21 µg/mL.
